T1: recombinant FL-Kank2 (mouse, UniProt Q8BX02 1-843)
T1 sequence (looked up): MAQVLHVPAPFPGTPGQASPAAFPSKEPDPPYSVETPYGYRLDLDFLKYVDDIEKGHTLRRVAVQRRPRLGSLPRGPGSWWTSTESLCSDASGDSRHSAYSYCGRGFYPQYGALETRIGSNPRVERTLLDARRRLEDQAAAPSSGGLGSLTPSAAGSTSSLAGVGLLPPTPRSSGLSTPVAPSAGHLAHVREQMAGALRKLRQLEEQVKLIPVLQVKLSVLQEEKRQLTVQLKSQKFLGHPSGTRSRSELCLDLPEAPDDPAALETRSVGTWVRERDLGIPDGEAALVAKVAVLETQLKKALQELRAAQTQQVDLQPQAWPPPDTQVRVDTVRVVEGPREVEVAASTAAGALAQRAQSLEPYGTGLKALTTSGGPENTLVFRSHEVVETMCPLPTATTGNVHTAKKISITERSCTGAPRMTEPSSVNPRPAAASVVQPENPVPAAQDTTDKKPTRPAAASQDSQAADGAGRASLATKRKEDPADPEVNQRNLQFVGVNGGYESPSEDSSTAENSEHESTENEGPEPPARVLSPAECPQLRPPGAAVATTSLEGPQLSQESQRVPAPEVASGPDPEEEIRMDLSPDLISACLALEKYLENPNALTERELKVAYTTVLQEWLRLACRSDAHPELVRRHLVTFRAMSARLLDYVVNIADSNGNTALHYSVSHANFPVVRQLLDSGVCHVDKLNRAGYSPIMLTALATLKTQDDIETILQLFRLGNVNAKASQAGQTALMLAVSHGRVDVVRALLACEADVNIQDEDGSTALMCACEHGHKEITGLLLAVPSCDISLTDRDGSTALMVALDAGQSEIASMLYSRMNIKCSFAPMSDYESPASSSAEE

B1: Venus-His-Sumo-tagged talin R4–R8 domain (domain or fragment, mouse, UniProt P26039 913-1655, looked up)
chain: LVQRLEHAAKQAAASATQTIAAAQHAASAPKASAGPQPLLVQSCKAVAEQIPLLVQGVRGSQAQPDSPSAQLALIAASQSFLQPGGKMVAAAKASVPTIQDQASAMQLSQCAKNLGTALAELRTAAQKAQEACGPLEMDSALSVVQNLEKDLQEIKAAARDGKLKPLPGETMEKCTQDLGNSTKAVSSAIAKLLGEIAQGNENYAGIAARDVAGGLRSLAQAARGVAALTSDPAVQAIVLDTASDVLDKASSLIEEAKKASGHPGDPESQQRLAQVAKAVTQALNRCVSCLPGQRDVDNALRAVGDASKRLLSDSLPPSTGTFQEAQSRLNEAAAGLNQAATELVQASRGTPQDLARASGRFGQDFSTFLEAGVEMAGQAPSQEDRAQVVSNLKGISMSSSKLLLAAKALSTDPASPNLKSQLAAAARAVTDSINQLITMCTQQAPGQKECDNALRQLETVRELLENPVQPINDMSYFGCLDSVMENSKVLGEAMTGISQNAKNGNLPEFGDAIATASKALCGFTEAAAQAAYLVGVSDPNSQAGQQGLVEPTQFARANQAIQMACQSLGEPGCTQAQVLSAATIVAKHTSALCNSCRLASARTANPTAKRQFVQSAKEVANSTANLVKTIKALDGDFTEENRAQCRAATAPLLEAVDNLSAFASNPEFSSVPAQISPEGRAAMEPIVISAKTMLESAGGLIQTARALAVNPRDPPRWSVLAGHSRTVSDSIKKLITSMRDKA

Experiments:
[1] = target: T1, recombinant FL-Kank2; assay: pull-down
[2] = target: B1; assay: pull-down

Row | binding result [1] | binding result [2] | Binder
1 | binds | – | B1
2 | – | binds | DPPYSVETPYGYRLDLDFLKYVDDIEKGHTLRRVAVQRRPRLGS (domain or fragment, mouse, UniProt Q8BX02 29-72, looked up) [GST-tagged Kank2-KN (amino acids 29–72)]

— PMC6053543 (Nature cell biology, 2016)
